Drawing on PMC3969726, this text covers Kd for four substances.

Assay [1] addresses Bfr ArdA (ArdA protein from Bacteroides fragilis NCTC 9343, Orf BF1222) (Bacteroides fragilis NCTC 9343). Briefly: SEC; Biosep-SEC-S3000 column; 20 mM Tris-HCl, 20 mM MES, 200 mM NaCl, 10 mM MgCl2, 0.1 mM EDTA, 7 mM 2-mercaptoethanol, pH 6.5; 25 °C; apparent molecular mass against injected monomer concentration, fitted to a monomer-dimer equilibrium; apparent constants; dimer to monomers. A general note: SEC sorts molecules by how far they enter the pores of the column.

The target in assay [2] is Ocr (Escherichia phage T7) (UniProt P03775). The settings on record: cited from earlier work.
Assay [3] addresses Mu50 ArdA (ArdA protein from Staphylococcus aureus Mu50, Orf SAV0405) (Staphylococcus aureus Mu50). Briefly: SEC; Biosep-SEC-S3000 column; 20 mM Tris-HCl, 20 mM MES, 200 mM NaCl, 10 mM MgCl2, 0.1 mM EDTA, 7 mM 2-mercaptoethanol, pH 6.5; 25 °C; apparent molecular mass against injected monomer concentration, fitted to a monomer-dimer equilibrium; apparent constants; dimer to monomers.

The target of assay [4] is Orf18 ArdA protein expressed by the conjugative transposon Tn916 (conjugative transposon Tn916). Described as above.

For the substance “Bfr ArdA (ArdA protein from Bacteroides fragilis NCTC 9343, Orf BF1222) (natural protein)”, the Kd in assay [1] is 360 nM.

Take EcoKI MTase (from UniProt P08957): in assay [2], the Kd is 0.05 nM.

In the case of “Mu50 ArdA (ArdA protein from Staphylococcus aureus Mu50, Orf SAV0405) (natural protein)”, in assay [3], the Kd is 3180 nM.

On to “Orf18 ArdA protein expressed by the conjugative transposon Tn916 (natural protein)”, for which the Kd in assay [4] turned out to be 2200 nM.
